Each block holds one binder with its values, some of them ahead of it.
What was measured:
Psy3 = target: T1, Psy3 (S. cerevisiae, UniProt Q12318 1-242); experiment: SEC
T1 sequence: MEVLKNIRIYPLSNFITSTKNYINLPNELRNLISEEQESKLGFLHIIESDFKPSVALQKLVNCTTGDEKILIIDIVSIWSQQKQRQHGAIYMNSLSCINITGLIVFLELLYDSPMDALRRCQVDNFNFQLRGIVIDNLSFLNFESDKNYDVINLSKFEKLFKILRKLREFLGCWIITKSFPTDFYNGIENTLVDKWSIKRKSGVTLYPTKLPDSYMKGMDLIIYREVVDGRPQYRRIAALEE

Csm2;Psy3 [1] = target: T2, Csm2;Psy3 (Saccharomyces cerevisiae;Saccharomyces …, UniProt P40465;Q12318 1-213;1-242, |); experiment: competition
T2 sequence 1: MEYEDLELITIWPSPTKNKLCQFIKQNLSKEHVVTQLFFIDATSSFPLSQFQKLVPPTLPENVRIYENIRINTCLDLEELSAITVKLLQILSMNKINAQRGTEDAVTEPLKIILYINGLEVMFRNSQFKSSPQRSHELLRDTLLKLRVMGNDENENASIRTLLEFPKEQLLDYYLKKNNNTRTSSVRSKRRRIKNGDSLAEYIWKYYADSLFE
T2 sequence 2: T1 sequence

Csm2;Psy3 [2] = target: T2, Csm2;Psy3; experiment: fluorescence anisotropy

binding result (Psy3): binds
B1: Csm2 (natural protein)
chain: T2 sequence 1

B2: 3'-overhang (mixed)
DNA 1: CTGCGAGCTCGAATTCACTGGAGTGACCTC
DNA 2: GAGGTCACTCCAGTGAATTCGAGCTCGCAGTGTCTAGGTCGTGACTTTGA
binding result (Csm2;Psy3 [1]): binds

B3: fluorescein-labelled fork (mixed)
DNA 1: TTTTTTTTTTTTTTTTTTTTCTTGACAAGCTTGCGCACT
DNA 2: AGTGCGCAAGCTTGTCAAGGCACTTTTTTTTTTTTTTTT
Kd (Csm2;Psy3 [2]): 361 ± 10.9 nM

Source: article PMC3632125 (Nucleic Acids Research, 2013)
